Laboratory results taken from publication PMC9578707, “Identification of orphan ligand-receptor relationships using a cell-based CRISPRa enrichment screening platform” (eLife, 2022).
Each block holds one molecule with its values, some of them ahead of it.

Assays:
[1] = biological target: RNF167-ECD (transmembrane PA-TM-RING E3 ligase RNF167, extracellular domain) (human) (UniProt Q9H6Y7); assay: SPR; Biacore T100; biotinylated ligand captured on a streptavidin (SA) Series S chip (~100-200 RU); non-biotinylated analyte in twofold dilutions in HBS-P+; 60 s injection at 30 ul/min, 240 s dissociation; regeneration 2 x 10 sec 2M MgCl2; KD from the fit at equilibrium (steady state)
[2] = biological target: T1, growth arrest specific 1 protein (human, UniProt P54826 40-317, biotin (biotinylated in vitro with BirA) where used on beads or as tetramer); assay: SPR; Biacore T100; biotinylated receptor ECD or hit protein captured on a streptavidin chip (~100-200 RU), non-biotinylated secreted ligand as analyte in twofold dilutions; HBS-P+ buffer; 1:1 Langmuir model or equilibrium fit; settings: both partners purified
T1 construct: growth arrest specific 1, human; also called GAS1; source: Expi293F, purified (Ni-NTA, SEC); not shown: AviTag, C-terminal, kept
T1 sequence (looked up): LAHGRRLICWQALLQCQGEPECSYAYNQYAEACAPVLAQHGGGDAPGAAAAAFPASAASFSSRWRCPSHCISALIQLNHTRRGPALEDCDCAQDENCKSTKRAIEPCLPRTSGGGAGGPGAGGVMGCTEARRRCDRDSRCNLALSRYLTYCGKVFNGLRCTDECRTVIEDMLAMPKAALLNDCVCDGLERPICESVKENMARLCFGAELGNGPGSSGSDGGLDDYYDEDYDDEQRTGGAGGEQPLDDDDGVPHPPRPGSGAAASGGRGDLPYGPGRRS

human PTPRU-ECD [3] = biological target: T2, human PTPRU-ECD (human, UniProt Q92729 19-749, biotin where captured on the streptavidin chip); assay: SPR
T2 chain: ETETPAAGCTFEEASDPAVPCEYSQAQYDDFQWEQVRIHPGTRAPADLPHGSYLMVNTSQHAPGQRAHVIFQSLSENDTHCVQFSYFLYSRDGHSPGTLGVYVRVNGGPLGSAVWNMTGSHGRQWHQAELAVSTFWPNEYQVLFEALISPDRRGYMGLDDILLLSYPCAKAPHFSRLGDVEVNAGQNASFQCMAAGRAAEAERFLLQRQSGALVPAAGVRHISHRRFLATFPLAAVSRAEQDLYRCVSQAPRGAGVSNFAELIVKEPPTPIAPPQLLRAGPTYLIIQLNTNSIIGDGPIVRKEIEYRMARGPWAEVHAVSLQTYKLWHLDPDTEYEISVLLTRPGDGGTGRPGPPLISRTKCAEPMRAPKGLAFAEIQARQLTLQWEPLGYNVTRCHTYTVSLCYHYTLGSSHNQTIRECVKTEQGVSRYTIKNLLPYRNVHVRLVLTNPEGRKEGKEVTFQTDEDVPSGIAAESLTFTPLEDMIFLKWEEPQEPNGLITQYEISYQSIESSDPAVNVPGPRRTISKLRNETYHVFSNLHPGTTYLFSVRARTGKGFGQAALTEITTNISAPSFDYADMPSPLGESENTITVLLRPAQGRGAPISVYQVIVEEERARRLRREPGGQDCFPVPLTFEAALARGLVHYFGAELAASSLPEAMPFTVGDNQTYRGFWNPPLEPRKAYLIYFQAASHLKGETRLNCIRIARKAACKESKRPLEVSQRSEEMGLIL

human PTPRU-ECD [4] = biological target: T3, human PTPRU-ECD (human, UniProt Q92729 19-749, biotin where captured on the streptavidin chip); assay: SPR; Biacore T100; biotinylated receptor ECD or hit protein captured on a streptavidin chip (~100-200 RU), non-biotinylated secreted ligand as analyte in twofold dilutions; HBS-P+ buffer; 1:1 Langmuir model or equilibrium fit; settings: both partners purified
T3 construct: PTPRU, human, extracellular domain; construct of the ECD is not described; source: Expi293F, purified (Ni-NTA, SEC)
T3 sequence (looked up): T2 chain

PTPRS ECD = biological target: T4, PTPRS ECD (human, UniProt Q13332 30-1282, biotin where captured on the streptavidin chip); assay: SPR; Biacore T100; biotinylated secreted ligand (OMG, PTN or MDK) captured on a streptavidin chip, receptor ECD as analyte; HBS-P+ buffer; settings: both partners purified
T4 construct: PTPRS, human, extracellular domain; construct of the ECD is not described; source: Expi293F, purified (Ni-NTA, SEC)
T4 sequence (looked up): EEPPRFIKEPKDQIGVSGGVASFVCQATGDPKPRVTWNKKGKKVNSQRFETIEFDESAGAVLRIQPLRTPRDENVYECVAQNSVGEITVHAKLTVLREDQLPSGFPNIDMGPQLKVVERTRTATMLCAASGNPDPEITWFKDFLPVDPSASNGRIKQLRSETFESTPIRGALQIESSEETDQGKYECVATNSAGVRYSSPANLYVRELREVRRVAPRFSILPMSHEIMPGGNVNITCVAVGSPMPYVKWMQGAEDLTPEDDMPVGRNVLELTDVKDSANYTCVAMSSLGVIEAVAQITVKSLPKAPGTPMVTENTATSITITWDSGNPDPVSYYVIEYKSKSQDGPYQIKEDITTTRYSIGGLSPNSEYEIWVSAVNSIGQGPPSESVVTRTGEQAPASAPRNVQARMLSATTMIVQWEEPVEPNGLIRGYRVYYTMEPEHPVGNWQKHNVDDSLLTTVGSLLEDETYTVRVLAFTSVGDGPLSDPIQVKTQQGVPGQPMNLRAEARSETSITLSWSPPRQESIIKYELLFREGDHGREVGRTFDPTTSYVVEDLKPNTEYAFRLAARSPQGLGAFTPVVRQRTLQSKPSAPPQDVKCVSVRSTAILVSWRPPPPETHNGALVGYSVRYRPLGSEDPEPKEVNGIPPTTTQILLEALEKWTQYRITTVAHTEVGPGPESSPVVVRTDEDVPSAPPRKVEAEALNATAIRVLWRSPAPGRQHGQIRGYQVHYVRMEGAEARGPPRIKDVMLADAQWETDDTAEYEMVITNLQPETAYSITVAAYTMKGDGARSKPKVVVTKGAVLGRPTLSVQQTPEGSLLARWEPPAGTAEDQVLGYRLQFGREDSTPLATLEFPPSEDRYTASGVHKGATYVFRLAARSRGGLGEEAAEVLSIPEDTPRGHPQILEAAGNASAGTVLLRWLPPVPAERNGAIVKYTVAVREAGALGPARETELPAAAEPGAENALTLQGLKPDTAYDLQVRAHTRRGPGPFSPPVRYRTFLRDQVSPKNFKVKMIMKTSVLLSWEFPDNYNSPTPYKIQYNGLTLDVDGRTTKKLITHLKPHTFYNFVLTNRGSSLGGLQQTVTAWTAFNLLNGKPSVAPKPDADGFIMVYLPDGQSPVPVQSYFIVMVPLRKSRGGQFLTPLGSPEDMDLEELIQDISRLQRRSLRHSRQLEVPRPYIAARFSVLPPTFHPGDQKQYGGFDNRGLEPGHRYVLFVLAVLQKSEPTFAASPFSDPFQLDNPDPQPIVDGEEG

PTPRF ECD = biological target: T5, PTPRF ECD (human, UniProt P10586 30-1263, biotin where captured on the streptavidin chip); assay: as above; settings: both partners purified
T5 construct: PTPRF, human, extracellular domain; construct of the ECD is not described; also called PRPRF; source: Expi293F, purified (Ni-NTA, SEC)

PTPRD ECD = biological target: T6, PTPRD ECD (human, UniProt P23468 21-1265, biotin where captured on the streptavidin chip); assay: as above; settings: both partners purified
T6 construct: PTPRD, human, extracellular domain; construct of the ECD is not described; source: Expi293F, purified (Ni-NTA, SEC)
T6 sequence (P23468 21-1265): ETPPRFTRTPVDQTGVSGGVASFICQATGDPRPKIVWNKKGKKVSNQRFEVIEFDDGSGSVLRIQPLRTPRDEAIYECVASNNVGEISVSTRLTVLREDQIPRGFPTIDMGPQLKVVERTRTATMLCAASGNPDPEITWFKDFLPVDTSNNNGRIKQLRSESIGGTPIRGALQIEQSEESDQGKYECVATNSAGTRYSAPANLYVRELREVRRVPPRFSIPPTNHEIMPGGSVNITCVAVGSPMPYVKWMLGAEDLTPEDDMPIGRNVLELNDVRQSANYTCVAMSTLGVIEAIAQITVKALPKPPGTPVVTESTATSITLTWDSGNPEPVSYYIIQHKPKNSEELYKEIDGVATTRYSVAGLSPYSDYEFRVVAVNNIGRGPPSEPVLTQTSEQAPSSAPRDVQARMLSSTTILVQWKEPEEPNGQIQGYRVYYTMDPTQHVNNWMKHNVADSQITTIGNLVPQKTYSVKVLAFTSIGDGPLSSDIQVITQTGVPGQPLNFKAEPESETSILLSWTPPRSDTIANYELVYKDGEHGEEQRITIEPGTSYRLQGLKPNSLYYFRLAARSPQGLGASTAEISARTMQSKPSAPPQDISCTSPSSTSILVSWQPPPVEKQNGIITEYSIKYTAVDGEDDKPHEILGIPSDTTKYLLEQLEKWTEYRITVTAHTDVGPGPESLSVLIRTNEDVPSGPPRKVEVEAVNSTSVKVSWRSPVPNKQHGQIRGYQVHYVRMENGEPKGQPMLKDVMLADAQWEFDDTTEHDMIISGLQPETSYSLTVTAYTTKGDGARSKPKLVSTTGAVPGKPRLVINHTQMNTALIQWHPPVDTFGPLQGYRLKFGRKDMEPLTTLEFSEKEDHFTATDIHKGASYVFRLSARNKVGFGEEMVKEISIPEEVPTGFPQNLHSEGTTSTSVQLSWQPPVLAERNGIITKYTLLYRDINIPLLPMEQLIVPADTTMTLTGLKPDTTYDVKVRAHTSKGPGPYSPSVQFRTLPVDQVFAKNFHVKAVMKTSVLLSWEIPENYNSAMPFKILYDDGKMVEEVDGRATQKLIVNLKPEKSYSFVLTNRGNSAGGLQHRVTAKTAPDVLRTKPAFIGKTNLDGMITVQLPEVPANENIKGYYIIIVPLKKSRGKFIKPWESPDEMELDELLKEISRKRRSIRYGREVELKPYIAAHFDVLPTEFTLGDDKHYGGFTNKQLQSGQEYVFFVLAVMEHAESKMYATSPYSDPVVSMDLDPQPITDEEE

[5] = biological target: T7, PTPRU-ECD (receptor protein tyrosine phosphatase U, extracellular domain) (human, UniProt Q92729 19-749, biotin (BirA biotinylation; captured on streptavidin chip)); assay: SPR; Biacore T100; biotinylated ligand captured on a streptavidin (SA) Series S chip (~100-200 RU); non-biotinylated analyte in twofold dilutions in HBS-P+; 60 s injection at 30 ul/min, 240 s dissociation; regeneration 2 x 10 sec 2M MgCl2; kinetic fit with a 1:1 binding (Langmuir) model; settings: both partners purified
T7 construct: receptor-type protein tyrosine phosphatase U (PTPRU, R2B subfamily), human, extracellular domain; source: Expi293F, purified (Ni-NTA, SEC), biotinylated in vitro with BirA
T7 sequence (looked up): T2 chain

[6] = biological target: T7, PTPRU-ECD (receptor protein tyrosine …); assay: as above; settings: both partners purified; remark: listed apart in the source

B1: PTPRA-ECD (domain or fragment, human, UniProt P18433 20-151, looked up)
chain: NNATTVAPSVGITRLINSSTAEPVKEEAKTSNPTSSLTSLSVAPTFSPNITLGPTYLTTVNSSDSDNGTTRTASTNSIGITISPNGTWLPDNQFTDARTEPWEGNSSTAATTPETFPPSGNSDSKDRRDETP
modifications: biotin (captured on the streptavidin chip)
notes: PTPRA, human, extracellular domain; construct of the ECD is not described; source: Expi293F, purified (Ni-NTA, SEC)
Kd [2]: ~1000 nM

B4: Osteocrin (ligand, human, UniProt P61366 28-133, looked up)
chain: VDVTTTEAFDSGVIDVQSTPTVREEKSATDLTAKLLLLDELVSLENDVIETKKKRSFSGFGSPLDRLSAGSVDHKGKQRKVVDHPKRRFGIPMDRIGRNRLSNSRG
modifications: biotin (biotinylated in vitro with BirA) where used on beads
notes: Osteocrin, human; also called OSTN; Musclin; source: Expi293F, purified (Ni-NTA, SEC); not shown: AviTag, C-terminal, kept
koff (human PTPRU-ECD [3]): 0.0036 s⁻¹
Kd (human PTPRU-ECD [4]): ~12 nM

B5: Osteocrin (OSTN) (ligand, human, UniProt P61366 28-133, looked up)
chain: B4 chain
notes: Osteocrin (OSTN, Musclin), human; also called Musclin; source: Expi293F, purified (Ni-NTA, SEC), not biotinylated (SPR analyte)
Kd [6]: 12.7 nM
koff [6]: 0.00368 s⁻¹
kon [6]: 290000 M⁻¹ s⁻¹

Further lines, results first:

Kd [1]: 314000 nM
Molecule: TAFA-2 (FAM19A2; chemokine-like family member 2) (from UniProt Q8N3H0 31-131) (ligand)

koff (human PTPRU-ECD [3]): 0.00042 s⁻¹
Kd (human PTPRU-ECD [4]): ~70 nM
binding result (PTPRS ECD): binds
binding result (PTPRF ECD): binds
binding result (PTPRD ECD): binds
B2: oligodendrocyte-myelin glycoprotein (ligand, human, UniProt P23515 25-417, looked up)
chain: ICPLQCICTERHRHVDCSGRNLSTLPSGLQENIIHLNLSYNHFTDLHNQLTQYTNLRTLDISNNRLESLPAHLPRSLWNMSAANNNIKLLDKSDTAYQWNLKYLDVSKNMLEKVVLIKNTLRSLEVLNLSSNKLWTVPTNMPSKLHIVDLSNNSLTQILPGTLINLTNLTHLYLHNNKFTFIPDQSFDQLFQLQEITLYNNRWSCDHKQNITYLLKWMMETKAHVIGTPCSTQISSLKEHNMYPTPSGFTSSLFTVSGMQTVDTINSLSVVTQPKVTKIPKQYRTKETTFGATLSKDTTFTSTDKAFVPYPEDTSTETINSHEAAAATLTIHLQDGMVTNTSLTSSTKSSPTPMTLSITSGMPNNFSEMPQQSTTLNLWREETTTNVKTPLPS
modifications: biotin (biotinylated in vitro with BirA) where used on beads or captured on the chip
notes: oligodendrocyte-myelin glycoprotein, human; also called OMG; source: Expi293F, purified (Ni-NTA, SEC); not shown: AviTag, C-terminal, kept

Kd [5]: 70.6 nM
koff [5]: 0.000472 s⁻¹
kon [5]: 6690 M⁻¹ s⁻¹
B3: oligodendrocyte-myelin glycoprotein (OMG) (ligand, human, UniProt P23515 25-417, looked up)
chain: B2 chain
notes: oligodendrocyte-myelin glycoprotein (OMG), human; source: Expi293F, purified (Ni-NTA, SEC), not biotinylated (SPR analyte)
